Two substances from paper PMC4466232 can be followed below.

For test [1], the target named is MVM capsid protein VP2 (stably expressed in human fibroblasts, HF-VPs) (Minute Virus of Mice, prototype strain (MVMp)). Put plainly: cross-linking; clarified cell homogenates in HNEM buffer (50 mM Hepes pH 8.0, 150 mM NaCl, 2 mM MgCl2, 1 mM EDTA) cross-linked with 10 mM dimethyl suberimidate (DMS), 10 min at 20°C; 5% SDS-PAGE and Western blot with the α-VPs antibody; MF-VPs quiescent by serum starvation (G0) or 8 h after serum addition (S); HF-VPs at hours after release of density arrest (G1). On the technique in general: Immunoblotting shows a protein as a band on a membrane.

The target of test [2] is MVM capsid protein VP2 (stably expressed in mouse fibroblasts, MF-VPs) (Minute Virus of Mice, prototype strain (MVMp)). The test is described as above.

The term stoichiometry N denotes the number of molecules, sites or subunits per partner or assembly. In test [1], “MVM capsid protein VP2 (stably expressed in human fibroblasts, HF-VPs) (natural protein)” showed a stoichiometry N of 3.

Substance “MVM capsid protein VP2 (stably expressed in mouse fibroblasts, MF-VPs) (natural protein)” showed a stoichiometry N in test [2] of 3.
